Laboratory results published in US20090227489A1, “STAT3 Agonists and Antagonists and Therapeutic Uses Thereof” (Johns Hopkins University, priority 2000, published 2009).

Tested on: TRAIL
Test: RNase protection assay with multi-template probes for regulators of apoptosis
Assay type: cell-based, murine
Conditions: B16 cells, thirty hours after transfection
Description: FIG. 4. Stat3β overexpression in B16 cells results in induction of TRAIL mRNA expression. Ten μg of total cellular RNAs isolated from B16 (lanes 1 and 4), and B16 transfected with either pIRES-EGFP (lanes 2 and 5) or pIRES-Stat3β (lanes 3 and 6) were hybridized with each multiple probe before digestion with RNase. Separation of protected fragments was achieved by gel electrophoresis. Fragment assignment was determined by migration relative to internal standards. Induction of TRAIL RNA was confirmed by two additional RPA analyses.
RNA isolation and RNase protection assay. Total RNA was isolated from 5.0×10^6 cells by TRIzol reagent (Gibco BRL, Grand Island, N.Y.). RNase protection assays (RPA) were carried out using the PharMingen Riboquant mAPO-3 (TRAIL, FasL, CD95, and other death receptor associated genes) and mAPO-2 (Bcl-2 family members) multi-probe templates according to the manufacturer's protocol (PharMingen, San Diego, Calif.). Briefly, the multi-probe template was synthesized by in vitro transcription with incorporation of [^32P]-α UTP and purified on a G50 Sephadex column (5-Prime to 3-Prime, Boulder, Colo.). Specific activity was quantitated in a Beckman LS 6500 scintillation counter (Beckman, Schaumburg, Ill.). […] Protected RNA fragments were separated on a 5% polyacrylamide denaturing gel and quantified with Image Quant software (Molecular Dynamics, Sunnyvale, Calif.). […]

B1: Stat3β: dominant-negative Stat3 variant, truncated form lacking the transactivation domain; delivered by the pIRES-Stat3β expression vector (protein)
chain: AQWNQLQQLDTRYLEQLHQLYSDSFPMELRQFLAPWIESQDWAYAASKESHATLVFHNLLGEIDQQYSRFLQESNVLYQHNLRRIKQFLQSRYLEKPMEIARIVARCLWEESRLLQTAATAAQQGGQANHPTAAVVTEKQQMLEQHLQDVRKRVQDLEQKMKVVENLQDDFDFNYKTLKSQGDMQDLNGNNQSVTRQKMQQLEQMLTALDQMRRSIVSELAGLLSAMEYVQKTLTDEELADWKRRQQIACIGGPPNICLDRLENWITSLAESQLQTRQQIKKLEELQQKVSYKGDPIVQHRPMLEERIVELFRNLMKSAFVVERQPCMPMHPDRPLVIKTGVQFTTKVRLLVKFPELNYQLKIKVCIDKDSGDVAALRGSRKFNILGTNTKVMNMEESNNGSLSAEFKHLTLREQRCGNGGRANCDASLIVTEELHLITFETEVYHQGLKIDLETHSLPVVVISNICQMPNAWASILWYNMLTNNPKNVNFFTKPPIGTWDQVAEVLSWQFSSTTKRGLSIEQLTTLAEKLLGPGVNYSGCQITWAKFCKENMAGKGFSFWVWLDNIIDLVKKYILALWNEGYIMGFISKERERAILSTKPPGTFLLRFSESSKEGGVTFTWVEKDISGKTQIQSVEPYTKQQLNNMSFAEIIMGYKIMDATNILVSPLVYLYPDIPKEEAFGKYCRPESQEHPEADPGAAPYLKTKFICVTFIDAVWK
- TRAIL RNA expression: induction of TRAIL RNA expression
